In the assay the target is CD44v6 on antigen-positive FaDu cells (human head and neck cancer cell line) (human) (UniProt P16070). Description: flow cytometry (FACS) on FaDu cells, FITC-labeled anti-human IgG detection, on ice.

B1: BIWA 4 (antibody, human IgG1, kappa, V domains shown)
VH: EVQLVESGGGLVKPGGSLRLSCAASGFTFSSYDMSWVRQAPGKGLEWVSTISSGGSYTYYLDSIKGRFTISRDNAKNSLYLQMNSLRAEDTAVYYCARQGLDYWGRGTLVTVSS
VL: EIVLTQSPATLSLSPGERATLSCSASSSINYIYWYQQKPGQAPRLLIYLTSNLASGVPARFSGSGSGTDFTLTISSLEPEDFAVYYCLQWSSNPLTFGGGTKVEIKR
For the molecule B1, the Kd (commonly the equilibrium constant for the complex coming apart) came to 1 nM.
